Data from US20240358755A1 (IMMATICS BIOTECHNOLOGIES, published 2024).

The binders below were run against T1, HLA-A*01:01 (human) (assay: UV peptide exchange, anti-b2m ELISA; exchange yield grade).
T1 construct: Peptide-receptive MHC class I monomer: a UV-sensitive peptide (not specified) is cleaved and exchanged with the test peptide
From the text: (§1) Candidate peptides for T cell based therapies according to the present invention were further tested for their MHC binding capacity (affinity). The individual peptide-MHC complexes were produced by UV-ligand exchange, where a UV-sensitive peptide is cleaved upon UV-irradiation and exchanged with the peptide of interest as analyzed. Only peptide candidates that can effectively bind and stabilize the peptide-receptive MHC molecules prevent dissociation of the MHC complexes. To determine the yield of the exchange reaction, an ELISA was performed based on the detection of the light chain (β2m) of stabilized MHC complexes. The assay was performed as generally described in Rodenko et al. (Rodenko et al., 2006).
(§2) 96 well MAXISorp plates (NUNC) were coated over night with 2 μg/ml streptavidin in PBS at room temperature, washed 4× and blocked for 1 h at 37° C. in 2% BSA containing blocking buffer. […] Peptide-MHC monomers of the UV-exchange reaction were diluted 100-fold in blocking buffer. Samples were incubated for 1 h at 37° C., washed four times, incubated with 2 μg/ml HRP conjugated anti-β2m for 1 h at 37° C., washed again and detected with TMB solution that is stopped with […]. Absorption was measured at 450 nm.
For FSEIFQDFL, the peptide exchange yield was 50 to 75%.
Work on EAAPNIMHY yielded a peptide exchange yield of 20 to 50%.
With VSPDEVLALW the peptide exchange yield was 20 to 50%.
Work on NVSFEVSLLY yielded a peptide exchange yield of at least 75%.
ASSPVILLL gave a peptide exchange yield of 20 to 50%.
With YSSEIWDLY the peptide exchange yield was at least 75%.
SADTAELLL gave a peptide exchange yield of 20 to 50%.
NSDLFYLLL was tested, and the peptide exchange yield was at least 75%.
Work on FTQKINSTW yielded a peptide exchange yield of 20 to 50%.
Binder LNFSDVFLY has a peptide exchange yield of 20 to 50%.
ETNTIEFIY gave a peptide exchange yield of at least 75%.
For TVDKGELLY, the peptide exchange yield was at least 75%.
Work on RADEEQASF yielded a peptide exchange yield of 20 to 50%.
With DVDIHKDLY the peptide exchange yield was at least 75%.
NSENLLVY gave a peptide exchange yield of 50 to 75%.
For LIDSLLLLL, the peptide exchange yield was 50 to 75%.

These binders were tested against HLA-B*44:05 (human) in the same assay as above.
From the text: as §1, §2
AETKQFWSA: binds.
KEIEAQEAA: binds.
TEIGTVIKLF: binds.
VEAPHLPSF: binds.
TEMSVSALY: binds.
AEGPDHHSL: binds.
METADRPEW: binds.
GEAAAARPV: binds.
FDLNIGSAY: binds.
KEFAFLEHSL: binds.
SQAKQITIW: binds.
RELGVGIAL: binds.
WETRLHNLW: binds.
REQLDGATL: binds.
EEGRIITKW: binds.
REVAGASAL: binds.
VEGVHFVQLL: binds.

The binders below were run against T2, HLA-A*24:02 (human) (assay: allele assigned to HLA ligand eluted from tissue (IP, LC-MS)).
T2 construct: Peptide-receptive MHC class I monomer in the UV-ligand exchange assay
LYLETRSEF: binds.
SHSSPTVSF: binds.
NFHTLAQQLLF: binds.
AWNESSAWLL: binds.
EYLGSENVF: binds.
FYNPRPPLI: binds.
VWILQKVNLAF: binds.
LWALAIPSL: binds.
KFPPSASEF: binds.
IFTGRNAYF: binds.
ILAPPQRISF: binds.
SQIKSPVVF: binds.
FQLSGPVTF: binds.
VFLLLPYPRF: binds.
VLYPSHSSF: binds.
VFVISGSHLF: binds.
IWRALGSLF: binds.
SYLKDHLSL: binds.
VYIASSFKI: binds.
QYLTYYPSF: binds.
